Details: Bos taurus; pH 7; 25 °C; Urea; CD; Potassium phosphate 10 mM; whole UniProt chain shown

B1: Protein S100-G wild type, P02633 (protein)
chain: MSAKKSPEELKGIFEKYAAKEGDPNQLSKEELKLLLQTEFPSLLKGPSTLDELFEELDKNGDGEVSFEEFQVLVKKISQ
denaturant m value: 1.17 kcal/mol/M
denaturant midpoint (higher = more stable): 5.6 M
unfolding free energy: 6.55 kcal/mol
